Biological target: Kuenenia stuttgartiensis hydrazine dehydrogenase (Kuenenia stuttgartiensis) (UniProt Q1PW30)
Assay: crystal structure

UniProt Q1PW30, sequence (Q1PW30 33-582): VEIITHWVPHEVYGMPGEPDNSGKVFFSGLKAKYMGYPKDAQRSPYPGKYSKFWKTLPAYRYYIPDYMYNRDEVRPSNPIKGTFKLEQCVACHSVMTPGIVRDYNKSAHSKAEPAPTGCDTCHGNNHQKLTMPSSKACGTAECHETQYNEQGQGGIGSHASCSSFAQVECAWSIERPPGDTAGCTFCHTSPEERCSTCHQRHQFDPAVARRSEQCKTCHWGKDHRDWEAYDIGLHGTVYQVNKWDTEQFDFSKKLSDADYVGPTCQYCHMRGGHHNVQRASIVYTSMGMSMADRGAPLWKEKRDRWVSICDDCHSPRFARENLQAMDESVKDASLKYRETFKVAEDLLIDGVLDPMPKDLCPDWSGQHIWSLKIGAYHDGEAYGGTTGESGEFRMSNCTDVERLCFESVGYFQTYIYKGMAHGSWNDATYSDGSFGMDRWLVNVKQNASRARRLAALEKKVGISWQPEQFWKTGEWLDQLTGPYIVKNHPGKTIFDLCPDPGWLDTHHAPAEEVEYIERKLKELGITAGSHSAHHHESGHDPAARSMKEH

stoichiometry N (copies per assembly of 24 HDH monomers): 12
Substance: Kustc1130, endogenous, co-purified with K. stuttgartiensis HDH (from UniProt Q1PW30 33-582) (natural protein)

From publication PMC6469936
